Measurements published in PMC2132798 (The Journal of Cell Biology, 1998).

B1: Myo5p (1,082–1,219) (domain or fragment, S. cerevisiae, UniProt Q04439 1082-1219, looked up)
chain: SSKPKEPMFEAAYDFPGSGSPSELPLKKGDVIYITREEPSGWSLGKLLDGSKEGWVPTAYMKPHSGNNNIPTPPQNRDVPKPVLNSVQHDNTSANVIPAAAQASLGDGLANALAARANKMRLESDDEEANEDEEEDDW
B2: Vrp1p (195–817) (domain or fragment, S. cerevisiae, UniProt P37370 195-817, looked up)
chain: HMPSVRPAHRSHQRKSSNISLPSVSAPPLPSASLPTHVSNPPQAPPPPPTPTIGLDSKNIKPTDNAVSPPSSEVPAGGLPFLAEINARRSERGAVEGVSSTKIQTENHKSPSQPPLPSSAPPIPTSHAPPLPPTAPPPPSLPNVTSAPKKATSAPAPPPPPLPAAMSSASTNSVKATPVPPTLAPPLPNTTSVPPNKASSMPAPPPPPPPPPGAFSTSSALSASSIPLAPLPPPPPPSVATSVPSAPPPPPTLTTNKPSASSKQSKISSSSSSSAVTPGGPLPFLAEIQKKRDDRFVVGGDTGYTTQDKQEDVIGSSKDDNVRPSPISPSINPPKQSSQNGMSFLDEIESKLHKQTSSNAFNAPPPHTDAMAPPLPPSAPPPPITSLPTPTASGDDHTNDKSETVLGMKKAKAPALPGHVPPPPVPPVLSDDSKNNVPAASLLHDVLPSSNLEKPPSPPVAAAPPLPTFSAPSLPQQSVSTSIPSPPPVAPTLSVRTETESISKNPTKSPPPPPSPSTMDTGTSNSPSKNLKQRLFSTGGSTLQHKHNTHTNQPDVDVGRYTIGGSNSIVGAKSGNERIVIDDSRFKWTNVSQMPKPRPFQNKTKLYPSGKGSSVPLDLTLFT
B3: Vrp1p (1–200) (domain or fragment, S. cerevisiae, UniProt P37370 1-200, looked up)
chain: MAGAPAPPPPPPPPALGGSAPKPAKSVMQGRDALLGDIRKGMKLKKAETNDRSAPIVGGGVVSSASGSSGTVSSKGPSMSAPPIPGMGAPQLGDILAGGIPKLKHINNNASTKPSPSASAPPIPGAVPSVAAPPIPNAPLSPAPAVPSIPSSSAPPIPDIPSSAAPPIPIVPSSPAPPLPLSGASAPKVPQNRPHMPSVR
B4: Myo3p (1,118–1,271) (domain or fragment, S. cerevisiae, UniProt P36006 1118-1271, looked up)
chain: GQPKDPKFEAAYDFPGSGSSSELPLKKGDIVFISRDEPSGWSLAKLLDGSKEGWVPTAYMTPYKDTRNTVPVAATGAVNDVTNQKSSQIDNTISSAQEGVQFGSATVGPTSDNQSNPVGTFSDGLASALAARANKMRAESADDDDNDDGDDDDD

Experiments:
Test in all cases: two-hybrid
[1] = biological target: B3
[2] = biological target: B2
[3] = biological target: B4
[4] = biological target: B1

| Binder | lacZ activity (Miller units) [1] | lacZ activity (Miller units) [2] | lacZ activity (Miller units) [3] | lacZ activity (Miller units) [4] |
| --- | --- | --- | --- | --- |
| B1 | 1060 ± 149 Miller units | 345 ± 7.3 Miller units | – | – |
| B2 | – | – | 74.5 ± 4.3 Miller units | 28.5 ± 2 Miller units |
| B3 | – | – | 254 ± 27.1 Miller units | 140 ± 2.3 Miller units |
| B4 | 1610 ± 264 Miller units | 96.3 ± 21.8 Miller units | – | – |
